In article PMC8967717 (Nature, 2022):
Several values for one entry are separate records, joined by “and”; a condition that tells them apart may be missing. Identical values can stand only once.

B1: XGv347 Fab fragment (Fab, V domains shown)
VH: QMQLVQSGPEVKKPGTSVKVSCKASGFTFTDVSSLQWVRQARGQRLEWIGWTVVGTGNTNYAPRFQERVTITTDKSTSTAYMELSSLRSEDTAVYYCAAPFCSETSCSDGFDLWGQGTKVTVS
VL: EIVLTQSPGTLSLSPGDRATLSCRASQSVRISYLAWYQQKPGQAPRLLISGSSSRATGIPDRFSASGSGTDFTLTISRLEPEDFAVYYCQQYANSPWTFGQGTKVEV
B2: XGv265 Fab fragment (Fab, V domains shown)
VH: QITLKESGPTLVKPTQTLTLTCNFSGFSLNTYGVGVGWIRQPPGKALEWLALIYWDGDERYGPFFKNKVTIAKDTSKNQVVLTMTNMDPVDTATYYCARHLIPTIFDYWGQGTLVTVSS
VL: QSALTQPASVSGSPGQSITISCTGTSSDVGGSNYVSWYQHHPDRAPKLLIYEVTNRPSGVSNRFSGSKSANTASLTISGLQAEDEADYYCSSYTTTSTHILFGGGTKLTV
B3: XGv265 (antibody, V domains shown)
VH: QITLKESGPTLVKPTQTLTLTCNFSGFSLNTYGVGVGWIRQPPGKALEWLALIYWDGDERYGPFFKNKVTIAKDTSKNQVVLTMTNMDPVDTATYYCARHLIPTIFDYWGQGTLVTVSS
VL: QSALTQPASVSGSPGQSITISCTGTSSDVGGSNYVSWYQHHPDRAPKLLIYEVTNRPSGVSNRFSGSKSANTASLTISGLQAEDEADYYCSSYTTTSTHILFGGGTKLTV
B4: XGv289 Fab fragment (Fab, V domains shown)
VH: QVQLVQSGAEVKKPGASLKVSCRASGYTFTSHFIHWVRQAPGQGLEWMGIINPSGGASYAQNFRDRVTMTTDPSTSTVYMELGSLRSEDTAVYYCARAEGSSWLGWFDPWGQGTLVTVSS
VL: QSVLTQPPSASGTPGQRVTIPCSGSSSNIGNNYVYWYQQLPGTAPKLLVYGNNQRPSGVPDRFSVSKSGTSASLAISGLRSEDEADYYCAAWDDGLSGSGWVFGGGTKLTVL
B5: XGv289 (antibody, V domains shown)
VH: QVQLVQSGAEVKKPGASLKVSCRASGYTFTSHFIHWVRQAPGQGLEWMGIINPSGGASYAQNFRDRVTMTTDPSTSTVYMELGSLRSEDTAVYYCARAEGSSWLGWFDPWGQGTLVTVSS
VL: QSVLTQPPSASGTPGQRVTIPCSGSSSNIGNNYVYWYQQLPGTAPKLLVYGNNQRPSGVPDRFSVSKSGTSASLAISGLRSEDEADYYCAAWDDGLSGSGWVFGGGTKLTVL
B6: XGv282 monoclonal antibody (antibody, V domains shown)
VH: QVQLVQSGAEVKKPGSSVKVSCKASGDTFSSYTFSWVRQAPGQGLEWMGRSIPIVGKAIYAQEFQGRVTISADRSTTTVYMELSSLRSDDTAVYYCARDQSGFDFFYYDHWGQGTLVAVSS
VL: QSVLTQPPSASGTPGQRVTISCSGSGSNIGSNTINWYQQLPGTAPKVLIYRNNERPSGVPDRFSGSKSGTSASLTISGLQSEDEAYYHCAAWDDSLNGPVFGGGTKLTVL
notes: IgG1; copies: 2 + 2
B7: XGv282 Fab fragment (Fab, V domains shown)
VH: QVQLVQSGAEVKKPGSSVKVSCKASGDTFSSYTFSWVRQAPGQGLEWMGRSIPIVGKAIYAQEFQGRVTISADRSTTTVYMELSSLRSDDTAVYYCARDQSGFDFFYYDHWGQGTLVAVSS
VL: QSVLTQPPSASGTPGQRVTISCSGSGSNIGSNTINWYQQLPGTAPKVLIYRNNERPSGVPDRFSGSKSGTSASLTISGLQSEDEAYYHCAAWDDSLNGPVFGGGTKLTVL
B8: XGv282 (antibody, V domains shown)
VH: QVQLVQSGAEVKKPGSSVKVSCKASGDTFSSYTFSWVRQAPGQGLEWMGRSIPIVGKAIYAQEFQGRVTISADRSTTTVYMELSSLRSDDTAVYYCARDQSGFDFFYYDHWGQGTLVAVSS
VL: QSVLTQPPSASGTPGQRVTISCSGSGSNIGSNTINWYQQLPGTAPKVLIYRNNERPSGVPDRFSGSKSGTSASLTISGLQSEDEAYYHCAAWDDSLNGPVFGGGTKLTVL
B9: XGv347 monoclonal antibody (antibody, V domains shown)
VH: QMQLVQSGPEVKKPGTSVKVSCKASGFTFTDVSSLQWVRQARGQRLEWIGWTVVGTGNTNYAPRFQERVTITTDKSTSTAYMELSSLRSEDTAVYYCAAPFCSETSCSDGFDLWGQGTKVTVSS
VL: EIVLTQSPGTLSLSPGDRATLSCRASQSVRISYLAWYQQKPGQAPRLLISGSSSRATGIPDRFSASGSGTDFALTISRLEPEDFAVYYCQQYDNSPWTFGQGTKVEVK
notes: copies: 2 + 2
B10: XGv347 (antibody, V domains shown)
VH: QMQLVQSGPEVKKPGTSVKVSCKASGFTFTDVSSLQWVRQARGQRLEWIGWTVVGTGNTNYAPRFQERVTITTDKSTSTAYMELSSLRSEDTAVYYCAAPFCSETSCSDGFDLWGQGTKVTVSS
VL: EIVLTQSPGTLSLSPGDRATLSCRASQSVRISYLAWYQQKPGQAPRLLISGSSSRATGIPDRFSASGSGTDFALTISRLEPEDFAVYYCQQYDNSPWTFGQGTKVEVK

Tests used:
[1] = target: prefusion-stabilized SARS-CoV-2 Omicron (B.1.1.529) S trimer (SARS-CoV-2, Omicron B.1.1.529 (BA.1), A67V | Δ69–70 | T95I | G142D | Δ143–145 | Δ211 | L212I | ins214EPE | G339D | …); assay: cryo-EM structure; details: both partners purified
[2] = target: SARS-CoV-2 wild-type spike (S) protein (SARS-CoV-2, WT (MN908947), UniProt P0DTC2); assay: cell-based or functional assay
[3] = target: T1, SARS-CoV-2 Omicron RBD (ACROBiosystems, cat. no. SPD-C522e) (SARS-CoV-2, Omicron B.1.1.529 (BA.1), G339D | S371L | S373P | S375F | K417N | N440K | G446S | S477N | T478K | E484A | …); assay: BLI; details: both partners purified
T1 construct: source: bought: ACROBiosystems

Row | Binder | stoichiometry N [1] | authentic virus IC50(μg/ml), Wild-type [2] [µg/mL] | pseudovirus IC50(μg/ml), Wild-type [2] [µg/mL] | other results
1 | B1 | 3 Fabs per S trimer and 2 Fabs per S trimer | – | – | –
2 | B2 | 2 Fabs per S trimer | – | – | –
3 | B3 | – | 0.0122 | 0.0105 | –
4 | B4 | 3 Fabs per S trimer | – | – | –
5 | B5 | – | 0.0061 | 0.00928 | –
6 | B6 | – | – | – | fold reduction in binding affinity against WT S [3]: 5 fold
7 | B7 | 3 Fabs per S trimer | – | – | –
8 | B8 | – | 0.00102 | 0.007 | –
9 | B9 | – | – | – | fold decrease in binding against WT S [3]: 40 fold
10 | B10 | – | 0.0061 | 0.0685 | –
